# The supplement of paper PMC7877785
# ± gives the uncertainty stated by the source.
# Assay: self-splicing fitness, log relative to wild type (ln ratio); higher = more splicing; Tetrahymena group I intron in knt gene, E. coli kanamycin selection, DiMSum; sequences stand for … in CUCUCU…GGAGGGAAAAGUUAUCAGGCAUGCACCUGGUAGCUAGUCUUUAAACCAAUAGAUUGCAUCGGUUUAAAAGGCAAGACCGUCAAAUUGCGGGAAAGGGGUCAACAGCCGUUCAGUACCAAGUCUCAGGGGAAACUUUGAGAUGGCCUUGCAAAGGGUAUGGUAAUAAGCUGACGGACAUGGUCCUAACCACGCAGCCAAGUCCUAAGUCAACAGAUCUUCUGUUGAUAUGGAUGCAGUUCACAGACUAAAUGUCGGUCGGGGAAGAUGUAUUCUUCUCAUAAGAUAUAGUCGGACCUCUCCUUAAUGGGAGCUAGCGGAUGAAGUGAUGCAACACUGGAGCCGCUGGGAACUAAUUUGUAUGCGAAAGUAUAUUGAUUAGUUUUGGAGUACUCGUGGUCG
# Summary of the method: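 Pooled colonies went to amplicon sequencing on an Illumina HiSeq 2500 after six replicate transformations. The plates were LB agar with 100 μg/mL carbenicillin, 50 μM IPTG and 0.2% rhamnose, with or without 25 μg/mL kanamycin, incubated overnight at 37°C or 30°C. The E. coli BL21(DE3) library had all eight P1ex-region intron nucleotides randomised, the intron placed in the knt kanamycin-resistance gene on pET-22b(+). DiMSum fitness is the error-weighted combination of replicate fold changes, kanamycin against none, normalised to wild type.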
Sequence,self-splicing fitness (ln) (30 °C),self-splicing fitness (ln) (37 °C)
CCCGAGCAAUAUUACGGUCA,-4.25 ± 0.46,-2.57 ± 0.26
CCCGAGCAAUAUUACGGUUG,-3.65 ± 0.15,-1.81 ± 0.11
CCCGAGCAAUAUUACGUAUU,-3.8 ± 0.17,-3.48 ± 0.24
CCCGAGCAAUAUUACGUCAU,-3.95 ± 0.31,-2.99 ± 0.26
CCCGAGCAAUAUUACGUCUG,-3.73 ± 0.29,-2.32 ± 0.26
CCCGAGCAAUAUUACGUGUU,-3.93 ± 0.15,-3 ± 0.17
CCCGAGCAAUAUUACGUUCG,-4.22 ± 0.42,-2.55 ± 0.3
CCCUAGCAAUAUUACGAACA,–,-2.55 ± 0.42
CCCUAGCAAUAUUACGAAGG,-4.03 ± 0.21,-2.71 ± 0.23
CCCUAGCAAUAUUACGAGCG,-2.86 ± 0.21,-1.13 ± 0.19
CCCUAGCAAUAUUACGAUUG,-3.45 ± 0.21,-2.38 ± 0.21
CCCUAGCAAUAUUACGCAGA,-3.68 ± 0.31,-1.73 ± 0.15
CCCUAGCAAUAUUACGCCAC,-2.88 ± 0.27,-1.6 ± 0.26
CCCUAGCAAUAUUACGCCCA,-3.12 ± 0.25,-3.76 ± 0.42
CCCUAGCAAUAUUACGCUCG,-2.25 ± 0.2,-2.85 ± 0.48
CCCUAGCAAUAUUACGCUUA,-3.78 ± 0.18,-2.86 ± 0.12
CCCUAGCAAUAUUACGCUUC,-2.66 ± 0.1,-2.36 ± 0.16
CCCUAGCAAUAUUACGGACC,-0.914 ± 0.3,–
CCCUAGCAAUAUUACGGAGG,-2.87 ± 0.15,-2.77 ± 0.26
CCCUAGCAAUAUUACGGCAU,-3.41 ± 0.24,-1.94 ± 0.17
CCCUAGCAAUAUUACGGGGG,-3.85 ± 0.24,-3.36 ± 0.3
CCCUAGCAAUAUUACGUCAA,-3.16 ± 0.32,-3.46 ± 0.39
CCCUAGCAAUAUUACGUCCG,-4.17 ± 0.26,-2.57 ± 0.23
CCCUAGCAAUAUUACGUCCU,-4.12 ± 0.37,-2.06 ± 0.28
CCCUAGCAAUAUUACGUCUC,-3.71 ± 0.41,-2.67 ± 0.27

Sequence,self-splicing fitness (ln) (30 °C),self-splicing fitness (ln) (37 °C)
CCCUAGCAAUAUUACGUUAU,-4.33 ± 0.26,-2.76 ± 0.19
CCGAAGCAAUAUUACGACUA,-2.1 ± 0.37,-2.65 ± 0.36
CCGAAGCAAUAUUACGAUAG,-0.89 ± 0.061,-0.284 ± 0.08
CCGAAGCAAUAUUACGCAAU,-3.92 ± 0.4,-1.94 ± 0.23
CCGAAGCAAUAUUACGCACA,-3.87 ± 0.37,-2.59 ± 0.28
CCGAAGCAAUAUUACGCACU,-2.98 ± 0.26,-2.68 ± 0.44
CCGAAGCAAUAUUACGCGAG,-2.65 ± 0.11,-2.08 ± 0.15
CCGAAGCAAUAUUACGGAGA,-2.52 ± 0.25,-2.68 ± 0.34
CCGAAGCAAUAUUACGGAUG,-2.94 ± 0.19,-0.504 ± 0.095
CCGAAGCAAUAUUACGGCCG,-0.396 ± 0.099,-0.442 ± 0.12
CCGAAGCAAUAUUACGGUAU,-3.13 ± 0.25,-3.64 ± 0.36
CCGAAGCAAUAUUACGGUGA,–,-3.25 ± 0.43
CCGAAGCAAUAUUACGGUGC,-3.26 ± 0.3,-2.26 ± 0.39
CCGAAGCAAUAUUACGUGAA,-3.64 ± 0.16,-2.82 ± 0.14
CCGAAGCAAUAUUACGUGCC,-2.83 ± 0.29,-2.64 ± 0.44
CCGAAGCAAUAUUACGUGUA,-4.03 ± 0.22,-2.81 ± 0.19
CCGAAGCAAUAUUACGUUCC,-3.94 ± 0.37,-2.81 ± 0.37
CCGCAGCAAUAUUACGACUU,-3.51 ± 0.35,-1.68 ± 0.32
CCGCAGCAAUAUUACGAGAG,-2.62 ± 0.084,-1.56 ± 0.082
CCGCAGCAAUAUUACGAGCA,-3.01 ± 0.38,-3.24 ± 0.47
CCGCAGCAAUAUUACGCACU,-2.9 ± 0.19,-2.51 ± 0.24
CCGCAGCAAUAUUACGCAUG,-2.91 ± 0.1,-0.661 ± 0.076
CCGCAGCAAUAUUACGCCAA,-3.73 ± 0.38,-2.06 ± 0.34
CCGCAGCAAUAUUACGCCCA,–,-2.55 ± 0.31
